Assay [1] deals with purified human properdin (human) (UniProt P27918). Description: cell-based or functional assay.
For assay [2] the target is unchanged. Put plainly: ELISA, preformed C3bBbP on C3b-coated plates incubated with increasing IRAC II; bound properdin detected with anti-properdin antibody. On the technique in general: ELISA stands for enzyme-linked immunosorbent assay.
The target is the same in assay [3]. Put plainly: ELISA, preformed C3bBbP on C3b-coated plates incubated with increasing IxAC-B1; bound properdin detected with anti-properdin antibody.

purified human properdin (human), sequence (P27918 28-469 limits assumed): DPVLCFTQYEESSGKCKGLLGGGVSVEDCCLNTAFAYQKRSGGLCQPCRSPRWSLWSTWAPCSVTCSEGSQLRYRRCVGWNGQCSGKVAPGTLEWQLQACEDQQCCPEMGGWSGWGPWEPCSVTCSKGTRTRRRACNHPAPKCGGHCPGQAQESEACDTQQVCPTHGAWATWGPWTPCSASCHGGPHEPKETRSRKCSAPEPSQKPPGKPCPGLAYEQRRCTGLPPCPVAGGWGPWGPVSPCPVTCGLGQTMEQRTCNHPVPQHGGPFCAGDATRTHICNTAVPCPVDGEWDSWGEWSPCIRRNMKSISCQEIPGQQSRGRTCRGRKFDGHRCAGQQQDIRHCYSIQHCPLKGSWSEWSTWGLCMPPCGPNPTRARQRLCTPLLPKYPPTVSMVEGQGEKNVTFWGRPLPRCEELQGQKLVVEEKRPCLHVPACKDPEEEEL

recombinant IxAC-B2-V5His: in assay [1], the inhibition of alternative pathway haemolysis of rabbit red blood cells by human serum came out at 85%.

“recombinant IRAC I-V5His (Ixodes ricinus anticomplement protein I)” had an inhibition of alternative pathway haemolysis of rabbit red blood cells by human serum in assay [1] of 85%. For recombinant IxAC-B5-V5His, the inhibition of alternative pathway haemolysis of rabbit red blood cells by human serum in assay [1] turned out to be 85%. Consider “recombinant IRAC II-V5His (Ixodes ricinus anticomplement protein II)”, for which the inhibition of alternative pathway haemolysis of rabbit red blood cells by human serum in assay [1] came to 85%. Further, the percent of pre-bound properdin displaced in assay [2] is 50%.

recombinant IxAC-B3-V5His: in assay [1], the inhibition of alternative pathway haemolysis of rabbit red blood cells by human serum was found to be 85%. recombinant IxAC-B1-V5His showed an inhibition of alternative pathway haemolysis of rabbit red blood cells by human serum in assay [1] of 85%. The percent of pre-bound properdin displaced in assay [3] turned out to be 50%.

In assay [1], recombinant IxAC-B4-V5His showed an inhibition of alternative pathway haemolysis of rabbit red blood cells by human serum of 85%.
